Target: T1, Utp22 (S. cerevisiae, UniProt P53254 1-1237)
T1 construct: Utp22, yeast, 1,237 residues, amplified from yeast genomic DNA, cloned with no tag; Residues 1-80 and several internal loops are not visible in the crystal; A selenomethionine-labelled form was used for phasing; source: High Five insect cells, recombinant baculovirus, coexpressed with Rrp7, copurified (HisTrap, heparin, Superdex 200)
T1 sequence (looked up): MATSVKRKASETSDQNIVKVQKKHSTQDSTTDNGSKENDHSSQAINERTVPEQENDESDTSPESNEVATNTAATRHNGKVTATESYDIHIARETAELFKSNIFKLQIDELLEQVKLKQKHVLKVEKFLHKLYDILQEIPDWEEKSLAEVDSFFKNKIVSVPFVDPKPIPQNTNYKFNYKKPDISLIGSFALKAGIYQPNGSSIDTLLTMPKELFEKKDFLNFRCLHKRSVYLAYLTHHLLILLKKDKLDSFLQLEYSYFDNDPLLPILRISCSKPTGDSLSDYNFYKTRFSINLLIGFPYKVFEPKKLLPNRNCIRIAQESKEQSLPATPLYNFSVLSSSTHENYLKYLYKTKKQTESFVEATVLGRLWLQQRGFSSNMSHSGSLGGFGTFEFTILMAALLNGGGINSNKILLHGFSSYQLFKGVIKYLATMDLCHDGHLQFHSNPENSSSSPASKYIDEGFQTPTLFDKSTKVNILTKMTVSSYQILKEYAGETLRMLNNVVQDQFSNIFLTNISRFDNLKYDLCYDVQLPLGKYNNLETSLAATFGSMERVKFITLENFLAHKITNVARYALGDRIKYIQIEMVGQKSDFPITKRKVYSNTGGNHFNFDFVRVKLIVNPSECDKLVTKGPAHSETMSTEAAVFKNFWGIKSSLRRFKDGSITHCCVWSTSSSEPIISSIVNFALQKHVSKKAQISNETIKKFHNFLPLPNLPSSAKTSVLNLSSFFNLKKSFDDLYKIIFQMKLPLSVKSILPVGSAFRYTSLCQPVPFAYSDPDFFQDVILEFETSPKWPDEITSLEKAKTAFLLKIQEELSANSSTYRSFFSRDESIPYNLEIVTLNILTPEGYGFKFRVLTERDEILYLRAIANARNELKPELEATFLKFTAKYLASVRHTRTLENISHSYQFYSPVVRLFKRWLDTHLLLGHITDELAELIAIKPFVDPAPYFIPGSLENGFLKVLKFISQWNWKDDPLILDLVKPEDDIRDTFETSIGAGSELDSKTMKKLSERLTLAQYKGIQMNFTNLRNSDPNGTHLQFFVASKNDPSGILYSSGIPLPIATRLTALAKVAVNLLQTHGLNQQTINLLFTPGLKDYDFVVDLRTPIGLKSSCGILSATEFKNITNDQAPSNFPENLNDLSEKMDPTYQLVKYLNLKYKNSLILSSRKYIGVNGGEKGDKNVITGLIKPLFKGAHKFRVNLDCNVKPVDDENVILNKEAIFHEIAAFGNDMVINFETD
Experiment: crystal structure; Utp22 and Rrp7 coexpressed in insect cells, copurified and cocrystallised; hanging drop, 20°C, 100 mM sodium cacodylate pH 6.2–6.5, 30% PEG 400, 200 mM lithium sulfate; refined to 1.97 Å
Settings: both partners purified

B1: Rrp7 (natural protein, S. cerevisiae, UniProt P25368 1-297, looked up)
chain: MGIEDISAMKNGFIVVPFKLPDHKALPKSQEASLHFMFAKRHQSSNSNESDCLFLVNLPLLSNIEHMKKFVGQLCGKYDTVSHVEELLYNDEFGLHEVDLSALTSDLMSSTDVNEKRYTPRNTALLKFVDAASINNCWNALKKYSNLHAKHPNELFEWTYTTPSFTTFVNFYKPLDIDYLKEDIHTHMAIFEQREAQAQEDVQSSIVDEDGFTLVVGKNTKSLNSIRKKILNKNPLSKHENKAKPISNIDKKAKKDFYRFQVRERKKQEINQLLSKFKEDQERIKVMKAKRKFNPYT
notes: N-terminal His6-tag followed by a PreScission site, cleaved with PreScission protease; source: High Five insect cells, recombinant baculovirus, coexpressed with Utp22, copurified (HisTrap, heparin, Superdex 200); not shown: His6, N-terminal, cleaved
binding result: binds

From article PMC3794860, “An RNA-Binding Complex Involved in Ribosome Biogenesis Contains a Protein with Homology to tRNA CCA-Adding Enzyme” (PLoS Biology, 2013)
